The target in assay [1] is T1, human CD47ECD human Fc protein (human, UniProt Q08722 19-139, limits assumed).
T1 construct: extracellular domain; also called human CD47ECD huFc; human CD47huFc; not shown: human Fc
Kind of assay: ELISA, plate coated with human CD47ECD huFc at 1 ug/ml, goat anti-mouse IgG-HRP, OD450. An excerpt:
After washing, the plates were developed with TMB substrate and analyzed by spectrophotometer at OD 450 nm.

The target of assay [2] is T2, human CD47ECD His tagged protein (human, UniProt Q08722 19-139, limits assumed).
T2 construct: extracellular domain; also called HuCD47ECD 8xHis; monovalent CD47ECD His tagged protein
Kind of assay: ELISA competition; plate-bound human CD47ECD His, competitor ligand SIRPα huFc 1 ug/ml. How it is done:
(§1) To evaluate the blocking ability of anti-human CD47 mouse mAb on recombinant human CD47 binding to its ligand SIRPα, an ELISA based ligand blocking assay was employed. Briefly, microtiter plates were coated with human CD47ECD His tagged protein at 1 μg/ml in PBS, 100 μl well at 4° C. overnight, then blocked with 100 μl/well of 2% BSA. […] The plates were washed with PBS/Tween and then incubated with anti-human IgG-HRP for 1 hour at 37° C. After washing, the plates were developed with TMB substrate and analyzed by spectrophotometer at OD 450 nm.

Assay [3] deals with T2, human CD47ECD His tagged protein. In words: ELISA ligand blocking, plate coated with human CD47 ECD His tagged protein at 1 ug/ml; blocked ligand human SIRPaECD huFc at 1 ug/ml, anti-human IgG-HRP. How it is done: as §1
The target in assay [4] is T3, His tagged mouse CD47 protein (mouse, UniProt Q61735 19-140, limits assumed).
T3 construct: Bought protein
T3 sequence (looked up): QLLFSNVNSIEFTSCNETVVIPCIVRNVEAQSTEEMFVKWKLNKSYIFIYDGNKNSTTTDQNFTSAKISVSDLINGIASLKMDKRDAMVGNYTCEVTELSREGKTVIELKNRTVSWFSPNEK
In words: ELISA, plate coated with His tagged mouse CD47 at 2 ug/ml, goat anti-mouse IgG-HRP, OD450. How it is done: To evaluate the binding cross-reactivity of anti-human CD47 antibodies to cynomolgus and mouse CD47, an ELISA based binding assay was used. Briefly, microtiter plates were coated with His tagged cynomolgus monkey CD47 or His tagged mouse CD47 protein (purchase from Acro Biosystem). Both proteins were coated at 2 μg/ml in PBS, 100 μl/well at 4° C. overnight. The plates were then blocked with 100 μl/well of 2% BSA. Ten-fold dilutions of mouse anti-human CD47 hybridoma antibodies were added to each well starting at 70 ug/ml and incubated for 1-2 hours at RT. The plates were washed with PBS/Tween and then incubate with goat-anti-mouse IgG antibody conjugated with Horse Radish Peroxidase (HRP) for 1 hour at RT. After washing, the plates were developed with TMB substrate and analyzed by spectrophotometer at OD 450 nm.

T2 sequence (Q08722 19-139 limits assumed): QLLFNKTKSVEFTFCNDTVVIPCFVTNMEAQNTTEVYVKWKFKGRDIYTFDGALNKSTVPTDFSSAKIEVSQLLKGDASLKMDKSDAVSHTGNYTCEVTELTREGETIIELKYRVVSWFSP
T1 sequence (Q08722 19-139 limits assumed): as above

B1: D36S4 mouse anti-human CD47 hybridoma antibody (antibody, V domains shown)
VH: EVKLEESGGGLVQPGGSMKLSCVASGFTFSRYWMNWVRQSPDKGLEWVAQIRLKSDNYETHYAESVKGRFTISRDDSKSSVYLQMNNLRAEDTGIYYCIEEGGYYVPFAYWGQGTLVTVSA
VL: DIVVSQSPSSLAVSAGEKVTMSCKSSQSLFKSRTRKNYLAWYQQRPGQSPKLLIYWASIRESGVPDRFTGSGSGTEFTLTISSVQAEDLAVYYCKQSYYLLTFGAGTKLELK
notes: Mouse hybridoma IgG
For B1, in assay [1], the 50% effective concentration (EC50 (read off the curve)) was approximately 0.02 µg/mL. For the same molecule, the IC50 in assay [2] was 0.59 nM; in assay [3] it was 0.09 µg/mL. Moreover, the binding result in assay [4] was “binds”.

Values taken from US20210206850A1 (ACCURUS BIOSCIENCES, published 2021).
